Legend:
[1] = molecular target: monothiol glutaredoxin 5 (Grx5) (S. cerevisiae) (UniProt Q02784); experiment: co-IP
[2] = molecular target: N-terminally His-tagged S. cerevisiae Grx5 (recombinant) (S. cerevisiae) (UniProt Q02784); experiment: MST

Substance	amount bound to anti-Grx5 immunobeads relative to Ssc1 [1] [fold]	Ka [2] [M⁻¹]
Ssq1-glutathione S-transferase (GST) fusion protein (natural protein)	> 4	
recombinant His-tagged S. cerevisiae Ssq1 (natural protein)		440000
